Measured values reported in patent publication US20220193114A1.

Target: MuSK (wild type, full length, mouse) (mouse) (UniProt Q61006)
Assay: cell-based or functional assay

UniProt Q61006, sequence (Q61006 22-868): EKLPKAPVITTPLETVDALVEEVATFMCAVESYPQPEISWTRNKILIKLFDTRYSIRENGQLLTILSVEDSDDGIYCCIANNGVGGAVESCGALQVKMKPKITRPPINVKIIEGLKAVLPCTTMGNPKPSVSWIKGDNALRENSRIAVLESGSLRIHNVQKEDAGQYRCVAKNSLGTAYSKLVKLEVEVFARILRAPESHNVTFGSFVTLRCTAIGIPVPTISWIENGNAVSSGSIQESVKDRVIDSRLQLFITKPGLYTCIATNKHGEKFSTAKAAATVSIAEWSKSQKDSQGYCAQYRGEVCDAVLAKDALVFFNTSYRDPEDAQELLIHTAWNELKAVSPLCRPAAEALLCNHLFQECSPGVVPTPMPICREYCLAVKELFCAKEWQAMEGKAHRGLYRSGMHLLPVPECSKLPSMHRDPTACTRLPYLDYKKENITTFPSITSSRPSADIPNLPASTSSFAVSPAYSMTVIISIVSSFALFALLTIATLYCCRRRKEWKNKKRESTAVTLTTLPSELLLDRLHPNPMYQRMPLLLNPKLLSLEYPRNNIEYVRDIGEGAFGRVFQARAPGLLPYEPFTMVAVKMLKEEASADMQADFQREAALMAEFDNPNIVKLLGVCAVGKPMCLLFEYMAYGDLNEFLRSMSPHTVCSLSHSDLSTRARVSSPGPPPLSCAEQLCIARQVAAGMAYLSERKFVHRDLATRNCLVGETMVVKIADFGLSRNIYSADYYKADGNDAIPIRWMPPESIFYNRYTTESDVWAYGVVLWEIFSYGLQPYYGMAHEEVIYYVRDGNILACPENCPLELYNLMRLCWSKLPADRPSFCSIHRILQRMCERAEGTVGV

transcription of Wnt11 in response to BMP4 (qRT-PCR, primary myotubes), WT response relative to ΔIg3-MuSK response (fold (WT response / ΔIg3-MuSK response)): 2.2
transcriptional response of Dok7 to BMP4 (qRT-PCR, primary myotubes), WT response relative to ΔIg3-MuSK response (fold (WT response / ΔIg3-MuSK response)): 1.6
Substance: BMP4 (ligand)
